Data from paper PMC12058022, “Promiscuous structural cross-compatibilities between major shell components of Klebsiella pneumoniae bacterial microcompartments” (PLOS One, 2025).

Legend:
Assay in all cases: SEC; SEC-HPLC of purified individual His6-tagged BMC-H (urea-purified fractions; EutM, CmcB and EutK also from the soluble fraction), Beckman Ultraspherogel SEC2000, 20 mM Tris-HCl, 300 mM NaCl, pH 7; size from calibration standards
[1] = target: CmcA, His6-tagged (Klebsiella pneumoniae (strain 342))
[2] = target: CmcB, His6-tagged (Klebsiella pneumoniae (strain 342))
[3] = target: CmcC, His6-tagged (Klebsiella pneumoniae (strain 342))
[4] = target: CmcE, C-terminally His6-tagged (Klebsiella pneumoniae (strain 342))
[5] = target: CmcE, N-terminally His6-tagged (Klebsiella pneumoniae (strain 342))
[6] = target: EutM, His6-tagged (Klebsiella pneumoniae (strain 342))
[7] = target: EutS, His6-tagged (Klebsiella pneumoniae (strain 342))
[8] = target: PduU, N-terminally His6-tagged (Klebsiella pneumoniae (strain 342)) (UniProt A6TDE7)
[9] = target: the molecule itself

CmcA, His6-tagged (natural protein)
stoichiometry N [1]: 6

CmcB, His6-tagged (natural protein)
stoichiometry N [2]: 6

CmcC, His6-tagged (natural protein)
stoichiometry N [3]: 6

CmcE, C-terminally His6-tagged (natural protein)
stoichiometry N [4]: 6

CmcE, N-terminally His6-tagged (natural protein)
stoichiometry N [5]: 6

EutM, His6-tagged (from UniProt A0A377ZA59 1-64) (natural protein)
stoichiometry N [6]: 6

EutS, His6-tagged (natural protein)
stoichiometry N [7]: 6

PduU, N-terminally His6-tagged (from UniProt A6TDE7 1-116) (natural protein)
stoichiometry N [8]: 6

B1: PduJ, His6-tagged (natural protein, Klebsiella pneumoniae (strain 342), UniProt A6TDD7 1-91, looked up)
chain: MNNALGLVETKGLVGAIEAADAMVKSANVQLIGYEKIGSGLITVMVRGDVGAVKAAVDAGSAAASVVGEVKSSHVIPRPHSDVEAILPKSV
notes: PduJ, canonical BMC-H shell protein of the PDU microcompartment; theoretical monomer MW 9.2 kDa; not shown: His6, C-terminal, kept
stoichiometry N [9]: 6

B2: PduA, His6-tagged (natural protein, Klebsiella pneumoniae (strain 342), UniProt A0ACD7U6D6 1-94, looked up)
chain: MQQEALGMVETKGLTAAIEAADAMVKSANVLLVGYERIGSGLVTVIVRGDVGAVKAATDAGAAAARHVGEVKAVHVIPRPHTDVEKILPKGNSQ
notes: PduA, canonical BMC-H shell protein of the PDU microcompartment; theoretical monomer MW 9.8 kDa; source: also co-expressed with a FLAG-tagged partner, in soluble lysate fraction and co-purified; not shown: His6, C-terminal, kept
stoichiometry N [9]: 6
